Series [1] deals with T1, McrA (rMcrA-S, C-terminal StrepII) (Escherichia coli, UniProt P24200 P24200:1-277).
T1 sequence: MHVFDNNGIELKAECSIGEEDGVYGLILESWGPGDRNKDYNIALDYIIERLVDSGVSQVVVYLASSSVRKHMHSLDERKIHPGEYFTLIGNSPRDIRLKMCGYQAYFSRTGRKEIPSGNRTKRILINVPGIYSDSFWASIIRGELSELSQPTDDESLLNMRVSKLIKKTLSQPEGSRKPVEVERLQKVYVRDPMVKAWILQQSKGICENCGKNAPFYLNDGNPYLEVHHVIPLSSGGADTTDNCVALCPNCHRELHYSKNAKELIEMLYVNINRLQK
Nature of the series: EMSA; A opposite m5C. The conditions noted are these: tags: C-terminal StrepII SAWSHPQFEK; mismatch A opposite m5C. The protocol:
(§1) EMSA binding assays. Reactions (10 μl) typically contained a mixture of 10-25 pMol of various test DNAs, and 250 ng sonicated E. coli. ER2925DNA as a non-methylated, non-specific competitor in 50 mM Tris-HCl, 100 mM NaCl, 1 mM dithiothreitol, 10 mM MgCl₂ (NEBuffer #3), supplemented, with 100 μg/ml BSA. We started the reactions adding 25-175 pMol McrA-S; after 45 min at RT, the entire sample was loaded on 10% acrylamide Tris-Acetate/EDTA gel (1×TAE: 40 mM Tris-Acetate, 1 mM disodium EDTA) which was electrophoresed at RT. Thereafter, the gels were stained with ethidium bromide (0.5 μg/ml) at RT and visualized with UV light. Then, we stained the gels with Coomassie Blue to detect rMcrA-S.
(§2) We next tested the ability of rMcrA-S to gel-shift ds-cassettes wherein an A, C, T, U, or I residue is placed opposite the m⁵C.
A general note: Mobility shift assays separate free from complexed probe on a gel.

The target in series [2] is T1, McrA (rMcrA-S, C-terminal StrepII). Nature of the series: EMSA; NEBuffer 3, RT. The note with it: tags: C-terminal StrepII SAWSHPQFEK
The protocol: as §1

For series [3] the target is unchanged. Briefly: EMSA; Ym5CGR somewhat higher affinity. The note with it: tags: C-terminal StrepII SAWSHPQFEK
The protocol: as §1

For series [4] the target is unchanged. Nature of the series: EMSA; hemimethylated. The note with it: tags: C-terminal StrepII SAWSHPQFEK
As to the method:
as §1, §2

The target is the same in series [5]. Briefly: EMSA; C opposite m5C. The conditions noted are these: tags: C-terminal StrepII SAWSHPQFEK; mismatch C opposite m5C. As to the method: as §1, §2
Series [6] has the same target. Briefly: EMSA; high affinity; NEBuffer 3, RT; Mg independent. The note with it: tags: C-terminal StrepII SAWSHPQFEK
As to the method: as §1

Series [7] shares this target. Nature of the series: EMSA; T opposite m5C. The note with it: tags: C-terminal StrepII SAWSHPQFEK; mismatch T opposite m5C. The protocol:
as §1, §2

Series [8] shares this target. Nature of the series: EMSA; NEBuffer 3, 100 mM NaCl, 10 mM MgCl2, RT. The note with it: tags: C-terminal StrepII SAWSHPQFEK
As to the method:
as §1

Series [9] shares this target. Briefly: EMSA; U opposite m5C. The conditions noted are these: tags: C-terminal StrepII SAWSHPQFEK; mismatch U opposite m5C. The protocol: as §1, §2

B1: m5C/A mismatch cassette (dsDNA)
DNA 1: GCCTTCAGCGCCGGCGGATCCAGT
DNA 2: ACTGGATCCGCCAGCGCTGAAGGC
modifications: 5mC at position 12 of top strand only
Turning to B1, in series [1], the binding result is recorded as “no binding”.

B2: m5CGC cassette (dsDNA)
DNA 1: CCCTCTGACGCAGGAGGCTCCTGC
DNA 2: GCAGGAGCCTCCTGCGTCAGAGGG
modifications: 5mC at CpG (M.SssI), top 9, bottom 15
For the molecule B2, the binding result in series [2] is on record as “no binding”.

B3: Cm5CGA cassette (dsDNA)
DNA 1: CCCTCTGCCGAAGGAGGCTCCTGC
DNA 2: GCAGGAGCCTCCTTCGGCAGAGGG
modifications: 5mC at CpG (M.SssI), top 9, bottom 15
Consider B3, for which, in series [3], the binding result was “binds”.

B4: hemimethylated Cm5CGG cassette (m5C/G) (dsDNA)
DNA 1: GCCTTCAGCGCCGGCGGATCCAGT
DNA 2: ACTGGATCCGCCGGCGCTGAAGGC
modifications: 5mC at position 12 of top strand only
B4: the binding result in series [4] is recorded as “binds”.

B5: Tm5CGA cassette (dsDNA)
DNA 1: CCCTCTGTCGAAGGAGGCTCCTGC
DNA 2: GCAGGAGCCTCCTTCGACAGAGGG
modifications: 5mC at CpG (M.SssI), top 9, bottom 15
As to B5, the binding result in series [3] is listed as “binds”.

B6: Gm5CGG cassette (dsDNA)
DNA 1: CCCTCTGGCGGAGGAGGCTCCTGC
DNA 2: GCAGGAGCCTCCTCCGCCAGAGGG
modifications: 5mC at CpG (M.SssI), top 9, bottom 15
In the case of B6, the binding result in series [2] is reported as “binds”.

B7: m5C/C mismatch cassette (dsDNA)
DNA 1: GCCTTCAGCGCCGGCGGATCCAGT
DNA 2: ACTGGATCCGCCCGCGCTGAAGGC
modifications: 5mC at position 12 of top strand only
As for B7, the binding result in [5] is recorded as “no binding”.

B8: Cm5CGG cassette (M.SssI) (dsDNA)
DNA 1: CCCTCTGCCGGAGGAGGATCCTGC
DNA 2: GCAGGATCCTCCTCCGGCAGAGGG
modifications: 5mC at CpG (M.SssI), top 9, bottom 15
With B8, the binding result in [3] is “binds”.

B9: Tm5CGG cassette (dsDNA)
DNA 1: CCCTCTGTCGGAGGAGGCTCCTGC
DNA 2: GCAGGAGCCTCCTCCGACAGAGGG
modifications: 5mC at CpG (M.SssI), top 9, bottom 15
With B9, the binding result in [3] is reported as “binds”.

B10: Am5CGG cassette (dsDNA)
DNA 1: CCCTCTGACGGAGGAGGCTCCTGC
DNA 2: GCAGGAGCCTCCTCCGTCAGAGGG
modifications: 5mC at CpG (M.SssI), top 9, bottom 15
Take B10: the binding result in series [2] is reported as “binds”.

B11: Cm5CGG cassette (single methylated HpaII site) (dsDNA)
DNA 1: GCCTTCAGCGCCGGCGGATCCAGT
DNA 2: ACTGGATCCGCCGGCGCTGAAGGC
modifications: 5mC at position 12 of both strands
For the molecule B11, the binding result in [6] was “binds”.

B12: m5CGT cassette (dsDNA)
DNA 1: CCCTCTGACGTAGGAGGCTCCTGC
DNA 2: GCAGGAGCCTCCTACGTCAGAGGG
modifications: 5mC at CpG (M.SssI), top 9, bottom 15
With B12, the binding result in series [2] is listed as “no binding”.

B13: m5C/T mismatch cassette (dsDNA)
DNA 1: GCCTTCAGCGCCGGCGGATCCAGT
DNA 2: ACTGGATCCGCCTGCGCTGAAGGC
modifications: 5mC at position 12 of top strand only
As to B13, the binding result in series [7] was “no binding”.

B14: Am5CGA cassette (dsDNA)
DNA 1: CCCTCTGACGAAGGAGGCTCCTGC
DNA 2: GCAGGAGCCTCCTTCGTCAGAGGG
modifications: 5mC at CpG (M.SssI), top 9, bottom 15
For the molecule B14, in series [2], the binding result is “binds”.

B15: Gm5CGA cassette (dsDNA)
DNA 1: CCCTCTGGCGAAGGAGGCTCCTGC
DNA 2: GCAGGAGCCTCCTTCGCCAGAGGG
modifications: 5mC at CpG (M.SssI), top 9, bottom 15
Take B15: the binding result in series [2] is recorded as “binds”.

B16: three m5CpG cassette (dsDNA)
DNA 1: GCCTTCAGCGCCGGCGGATCCAGT
DNA 2: ACTGGATCCGCCGGCGCTGAAGGC
modifications: 5mC at positions 9, 12, 15 of both strands
As to B16, in series [8], the binding result was “binds”.

B17: m5C/U mismatch cassette (dsDNA)
DNA 1: GCCTTCAGCGCCGGCGGATCCAGT
DNA 2: ACTGGATCCGCCUGCGCTGAAGGC
modifications: 5mC at position 12 of top strand only; U in bottom strand opposite m5C
Regarding B17, the binding result in [9] is “no binding”.

Source of the values: patent US20120219942, “Methods Employing McrA to Detect 5-Methyl Cytosine” (Brookhaven Science Associates, LLC, published 2012).
